Data set [1] has as its target T1, OprM trimer, unlabeled (Pseudomonas aeruginosa, UniProt Q51487 18-485, palmitoyl moiety (said of the protein in general)).
T1 construct: OprM, outer membrane protein of the MexA-MexB-OprM efflux pump of Pseudomonas aeruginosa; also called outer membrane protein OprM; source: expressed and purified as previously described [50]; solubilized in 1% beta-octylglucoside, then inserted into the L3 sponge phase
T1 sequence: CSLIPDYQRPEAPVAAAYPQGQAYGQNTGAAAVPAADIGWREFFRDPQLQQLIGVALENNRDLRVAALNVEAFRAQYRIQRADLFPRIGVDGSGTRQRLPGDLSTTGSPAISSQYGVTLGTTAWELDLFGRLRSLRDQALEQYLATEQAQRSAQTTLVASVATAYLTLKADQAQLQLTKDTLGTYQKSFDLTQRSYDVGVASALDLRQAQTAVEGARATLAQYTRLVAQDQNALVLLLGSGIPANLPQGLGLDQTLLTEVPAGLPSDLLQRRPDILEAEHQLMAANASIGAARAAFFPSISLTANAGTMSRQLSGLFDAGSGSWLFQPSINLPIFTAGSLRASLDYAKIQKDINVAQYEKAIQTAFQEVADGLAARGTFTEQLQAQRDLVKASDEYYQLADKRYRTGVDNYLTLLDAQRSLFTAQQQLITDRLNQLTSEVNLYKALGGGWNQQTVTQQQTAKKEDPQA
In words: FRAPP (fluorescence recovery after fringe pattern photobleaching); dW about 200 A, pH 7.5; OprM trimer constant at 1 uM, molar ratio r of FITC-labeled MexA to OprM trimer varied; stoichiometry from the intensity I0 of free MexA. The following applies: both partners purified.

Data set [2] has as its target T1, OprM trimer, unlabeled. Put plainly: FRAPP (fluorescence recovery after fringe pattern photobleaching); as a5 (dW about 200 A, stoichiometry from free MexA intensity) but at pH 5.5. The following applies: both partners purified.
Data set [3] deals with the molecule itself. Put plainly: FRAPP (fluorescence recovery after fringe pattern photobleaching); FITC-labeled OprM alone in the sponge phase, dW>170 A; hydrodynamic radius from the diffusion coefficient compared with crystallographic and electron microscopy data.

Data on two molecules can be found in PMC2659767, “Tracking Membrane Protein Association in Model Membranes” (PLoS ONE, 2009).

As usually defined, the stoichiometry N is the number of molecules, sites or subunits per partner or assembly.

B1: MexA, mature form bearing a palmitoyl moiety, FITC-labeled (natural protein)
chain: CGKSEAPPPAQTPEVGIVTLEAQTVTLNTELPGRTNAFRIAEVRPQVNGIILKRLFKEGSDVKAGQQLYQIDPATYEADYQSAQANLASTQEQAQRYKLLVADQAVSKQQYADANAAYLQSKAAVEQARINLRYTKVLSPISGRIGRSAVTEGALVTNGQANAMATVQQLDPIYVDVTQPSTALLRLRRELASGQLERAGDNAAKVSLKLEDGSQYPLEGRLEFSEVSVDEGTGSVTIRAVFPNPNNELLPGMFVHAQLQEGVKQKAILAPQQGVTRDLKGQATALVVNAQNKVELRVIKADRVIGDKWLVTEGLNAGDKIITEGLQFVQPGVEVKTVPAKNVASAQKADAAPAKTDSKG
modifications: palmitoyl moiety (on the unique N-terminal cysteine); FITC label
notes: MexA, periplasmic lipoprotein of the MexA-MexB-OprM efflux pump of Pseudomonas aeruginosa, in its mature form; Found monomeric in the sponge phase; also called FITC-labeled MexA; periplasmic protein MexA; source: solubilized in 1% beta-octylglucoside, then inserted into the L3 sponge phase
Take B1: the “stoichiometry N” value in data set [1] came out at 2 MexA per OprM trimer; in data set [2], 6 MexA per OprM trimer.

B2: OprM, FITC-labeled (natural protein)
chain: T1 sequence
modifications: FITC label; palmitoyl moiety (said of the protein in general)
notes: OprM, outer membrane protein of the MexA-MexB-OprM efflux pump of Pseudomonas aeruginosa; Same protein as m2, here labeled with FITC and measured alone; also called FITC-labeled OprM; OprM trimer; source: expressed and purified as previously described [50]; labeled with FITC; inserted into the L3 sponge phase
B2: in data set [3], the “stoichiometry N” value is 3.
